Assay results: PMC10080908
Values joined by “and” are separate entries in the source; they are usually repeats but may differ in a detail not shown here. Identical values can stand only once.

Key:
UBXN7-WT (human) [1] = biological target: UBXN7-WT (human) (UniProt O94888); experiment: ITC; VP-ITC; 200 µM RNF111 RING domain injected (20 x 10 µl) into 10 µM UBXN7-WT or UBXN7-UAS, or into 15 µM UBXN7-∆UAS, in the cell; 25 °C; phosphate-buffered saline pH 7.4, 1 mM TCEP; single binding site model
[2] = biological target: UBXN7-UAS recombinant protein (human) (UniProt O94888); experiment: ITC; VP-ITC, 25 °C, PBS pH 7.4 with 1 mM TCEP; 200 µM RNF111 RING domain injected (20 x 10 µl) into 10 µM UBXN7-WT or UBXN7-UAS or 15 µM UBXN7-∆UAS; single binding site model
UBXN7-UAS recombinant protein (human), sequence (O94888 94-284): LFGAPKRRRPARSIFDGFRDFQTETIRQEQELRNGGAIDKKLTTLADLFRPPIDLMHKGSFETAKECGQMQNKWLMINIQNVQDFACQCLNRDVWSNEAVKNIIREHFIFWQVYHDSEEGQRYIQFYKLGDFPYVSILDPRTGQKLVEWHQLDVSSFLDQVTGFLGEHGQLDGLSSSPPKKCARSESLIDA

UBXN7-WT (human) [3] = biological target: UBXN7-WT (human) (UniProt O94888); experiment: as above

UBXN7-WT (human), sequence (O94888 whole entry, the tested form may be a part): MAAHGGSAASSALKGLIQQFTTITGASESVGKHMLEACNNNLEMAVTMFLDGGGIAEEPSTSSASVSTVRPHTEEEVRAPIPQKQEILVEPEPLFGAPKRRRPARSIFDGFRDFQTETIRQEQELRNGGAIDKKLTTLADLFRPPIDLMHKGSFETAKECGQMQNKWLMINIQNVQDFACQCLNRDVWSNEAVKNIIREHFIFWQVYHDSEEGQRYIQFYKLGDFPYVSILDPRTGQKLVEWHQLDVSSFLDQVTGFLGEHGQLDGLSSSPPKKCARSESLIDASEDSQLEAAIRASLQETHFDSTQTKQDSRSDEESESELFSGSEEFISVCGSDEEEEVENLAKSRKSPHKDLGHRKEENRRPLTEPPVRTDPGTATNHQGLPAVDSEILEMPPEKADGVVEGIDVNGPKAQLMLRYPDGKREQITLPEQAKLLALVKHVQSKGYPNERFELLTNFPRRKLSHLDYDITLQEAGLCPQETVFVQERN

Substance: RNF111 RING domain (RNF111-RING, aa 895 to Cter) (domain or fragment)
- Kd (UBXN7-WT (human) [1]): 2.49 µM and 2.26 µM
- stoichiometry N (UBXN7-WT (human) [1]): 0.928 and 1.11
- Kd (UBXN7-WT (human) [1]; mean): 2.37 µM
- stoichiometry N (UBXN7-WT (human) [1]; mean): 1.02

Substance: RNF111-RING recombinant protein (domain or fragment)
- Kd [2]: 0.9 µM
- stoichiometry N [2]: 1
- Kd (UBXN7-WT (human) [3]): 2.3 µM
- stoichiometry N (UBXN7-WT (human) [3]): 1
